This note sets out measurements from US8026218 (UNIVERSITY OF ARIZONA, dated 2011).

In experiment [1] the target is T1, human NK1 receptor (human, UniProt P25103 1-407).
T1 construct: whole, on cells; membrane preparations of the transfected cells were used; also called hNK1; human neurokinin-1 receptor
Description: competition vs [3H]Substance P, hNK1 CHO cell membranes.

Experiment [2] concerns the target T2, rat NK1 receptor (rat, UniProt P14600 1-407).
T2 construct: whole, on cells; membrane preparations of the transfected cells were used; also called rNK1; rNK-1
The experiment in a line: competition vs [3H]Substance P, rNK1 CHO cell membranes.

Experiment [3] has as its target T2, rat NK1 receptor. Described as above. This is another data set of the same source.
The target of experiment [4] is T3, human δ opioid receptor (human, UniProt P41143 1-372).
T3 construct: whole, on cells; membrane preparations of the transfected cells were used; also called hDOR; DOR
The experiment in a line: competition vs [3H]DPDPE, hDOR cell membranes.

The target in experiment [5] is T1, human NK1 receptor. The experiment in a line: competition vs [3H]Substance P, hNK1 CHO cell membranes. The source holds these as a separate data set.
The target of experiment [6] is guinea pig NK1 receptor (guinea pig, UniProt P30547 1-407). Description: cell-based or functional assay.
Experiment [7] concerns the target µ opioid receptor of the guinea pig isolated ileum (guinea pig, UniProt P97266 1-98). Description: cell-based or functional assay.
Experiment [8] deals with T3, human δ opioid receptor. The experiment in a line: competition vs [3H]DPDPE, hDOR cell membranes. The source holds these as a separate data set.
For experiment [9], the target named is T1, human NK1 receptor. Description: competition vs [3H]Substance P, hNK1 CHO cell membranes. The source holds these as a separate data set.
Experiment [10] concerns the target T3, human δ opioid receptor. The experiment in a line: competition vs [3H]DPDPE, hDOR cell membranes. This is another data set of the same source.
Experiment [11] deals with T4, rat µ opioid receptor (rat, UniProt P33535 1-398).
T4 construct: whole, on cells; membrane preparations of the transfected cells were used; also called rMOR; MOR
Description: competition vs [3H]DAMGO, rMOR cell membranes.

The target in experiment [12] is T3, human δ opioid receptor. The experiment in a line: cell-based or functional assay.
Experiment [13] concerns the target T4, rat µ opioid receptor. The experiment in a line: cell-based or functional assay.
Experiment [14] deals with T2, rat NK1 receptor. Description: competition vs [3H]Substance P, rNK1 CHO cell membranes. The source holds these as a separate data set.

Where two headings read alike, the source gives them in different places. Square brackets hold non-standard residues; d marks the D form. Ends that are not written are not given here. * marks the point of attachment. NH(3,5-(CF3)2-benzyl) = FC(F)(F)c1cc(CN*)cc(C(F)(F)F)c1; OBzl(3,5-(CF3)2) = FC(F)(F)c1cc(CO*)cc(C(F)(F)F)c1; Dmt = Cc1cc(O)cc(C)c1C[C@H](N)C(=O)O

Usually Ki stands for the dissociation constant of the complex between target and ligand, obtained from inhibition or displacement.

T2 sequence (P14600 whole entry): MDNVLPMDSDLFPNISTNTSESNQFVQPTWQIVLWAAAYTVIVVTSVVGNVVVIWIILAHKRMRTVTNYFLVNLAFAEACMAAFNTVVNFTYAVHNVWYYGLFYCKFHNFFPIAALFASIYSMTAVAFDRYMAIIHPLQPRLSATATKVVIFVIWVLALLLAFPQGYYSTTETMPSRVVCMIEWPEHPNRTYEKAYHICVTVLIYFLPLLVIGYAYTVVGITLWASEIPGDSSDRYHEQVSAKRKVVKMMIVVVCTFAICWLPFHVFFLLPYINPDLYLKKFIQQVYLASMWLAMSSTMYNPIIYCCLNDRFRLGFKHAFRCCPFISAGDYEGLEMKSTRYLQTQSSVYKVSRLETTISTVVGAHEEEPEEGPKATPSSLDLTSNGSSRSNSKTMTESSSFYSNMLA
T1 sequence (P25103 whole entry): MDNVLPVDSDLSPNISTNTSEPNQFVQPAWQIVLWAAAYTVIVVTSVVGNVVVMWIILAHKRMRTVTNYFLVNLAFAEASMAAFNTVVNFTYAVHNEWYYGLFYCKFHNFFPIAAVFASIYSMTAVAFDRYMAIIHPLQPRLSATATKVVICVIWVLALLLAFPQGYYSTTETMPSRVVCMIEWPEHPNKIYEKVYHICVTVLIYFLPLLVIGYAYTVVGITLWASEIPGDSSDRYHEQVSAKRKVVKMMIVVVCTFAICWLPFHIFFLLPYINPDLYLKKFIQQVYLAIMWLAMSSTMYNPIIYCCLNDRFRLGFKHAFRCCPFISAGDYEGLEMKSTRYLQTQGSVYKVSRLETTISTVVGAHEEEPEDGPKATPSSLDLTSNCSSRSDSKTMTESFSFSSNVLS
T3 sequence (P41143 whole entry, stated change not applied): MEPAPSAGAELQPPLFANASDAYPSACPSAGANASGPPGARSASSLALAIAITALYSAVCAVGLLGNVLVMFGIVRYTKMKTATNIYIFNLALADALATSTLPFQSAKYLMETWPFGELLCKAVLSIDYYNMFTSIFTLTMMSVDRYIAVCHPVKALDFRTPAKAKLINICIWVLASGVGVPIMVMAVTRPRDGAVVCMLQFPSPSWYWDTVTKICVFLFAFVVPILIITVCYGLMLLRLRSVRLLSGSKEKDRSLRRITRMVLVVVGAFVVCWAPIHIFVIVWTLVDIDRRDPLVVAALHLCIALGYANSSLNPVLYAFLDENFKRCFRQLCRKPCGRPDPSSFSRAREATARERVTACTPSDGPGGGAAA
T4 sequence (P33535 whole entry): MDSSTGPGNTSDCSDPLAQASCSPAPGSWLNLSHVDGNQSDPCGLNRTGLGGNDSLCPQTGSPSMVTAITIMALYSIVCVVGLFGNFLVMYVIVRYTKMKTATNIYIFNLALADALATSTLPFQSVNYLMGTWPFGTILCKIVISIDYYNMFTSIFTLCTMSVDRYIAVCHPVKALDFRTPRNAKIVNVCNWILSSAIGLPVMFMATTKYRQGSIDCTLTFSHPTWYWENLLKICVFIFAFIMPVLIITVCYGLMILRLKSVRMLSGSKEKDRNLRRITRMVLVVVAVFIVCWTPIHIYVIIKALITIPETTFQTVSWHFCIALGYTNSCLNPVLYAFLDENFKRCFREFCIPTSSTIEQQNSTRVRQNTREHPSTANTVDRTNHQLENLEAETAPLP
Chain of guinea pig NK1 receptor (P30547 whole entry): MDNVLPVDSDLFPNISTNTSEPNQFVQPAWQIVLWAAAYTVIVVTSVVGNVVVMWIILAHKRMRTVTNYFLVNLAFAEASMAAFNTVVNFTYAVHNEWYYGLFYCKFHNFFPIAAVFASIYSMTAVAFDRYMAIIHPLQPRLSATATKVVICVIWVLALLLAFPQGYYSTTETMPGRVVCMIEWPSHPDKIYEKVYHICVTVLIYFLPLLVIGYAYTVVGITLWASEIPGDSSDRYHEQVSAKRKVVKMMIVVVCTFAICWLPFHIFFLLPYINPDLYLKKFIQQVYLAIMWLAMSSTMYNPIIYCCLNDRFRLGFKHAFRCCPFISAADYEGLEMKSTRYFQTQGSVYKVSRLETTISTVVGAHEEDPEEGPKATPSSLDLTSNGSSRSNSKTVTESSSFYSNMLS
Chain of µ opioid receptor of the guinea pig isolated ileum (P97266 whole entry): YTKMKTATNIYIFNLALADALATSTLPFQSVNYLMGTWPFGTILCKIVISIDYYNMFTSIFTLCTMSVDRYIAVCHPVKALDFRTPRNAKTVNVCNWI

Take [Dmt][dA]GFMPLW-{NH(3,5-(CF3)2-benzyl)} (also called TY032) [DmtDAlaGlyPheMetProLeuTrpNHBn(CF3)2]: the inhibition constant Ki in experiment [1] amounted to 0.0079 nM; in [2] it was 2.3 nM; in [3] it was 2.3 nM; in experiment [4], 0.12 nM; in [5] it was 0.0079 nM; in experiment [8] it was 0.12 nM. For the same molecule, in experiment [6], the “GPI/LMMP Substance P antagonist Ke” value turned out to be 7.5 nM. Further, in [7], the “GPI/LMMP IC50” value came to 18.6 nM.
For the molecule Y[dA]GW-{OBzl(3,5-(CF3)2)} (also called NP44) [Tyr-D-Ala-Gly-Trp-O-3′,5′(CF3)2-Bzl], the inhibitory constant (Ki) was 0.03 nM in experiment [9], 306 nM in [10], 48.5 nM in experiment [11] and 3.4 nM in experiment [14]. Also, the results for the “GTP EC50” value in experiment [12] and in experiment [13] were 280 nM and 22.9 nM, respectively.
